± gives the uncertainty stated by the source.
B1: CD2-associated protein, residues 1 to 59; numbered along this chain, Q9Y5K6 (parent)
chain: MVDYIVEYDYDAVHDDELTIRVGEIIRNVKKLQEEGWLEGELNGRRGMFPDNFVKEIKR
B2: Pyruvate dehydrogenase protein X component, mitochondrial, residues 181 to 227; numbered along this chain, O00330 (parent)
chain: RFRLSPAARNILEKHSLDASQGTATGPRGIFTKEDALKLVQLKQTGK

Variants of: B1
Assay: abundance fitness (aPCA) (normalised: wild type 0, dead -1); higher = more abundant; growth selection in yeast, the domain comes from the species named
Conditions: Homo sapiens

Abundance fitness, by site and new letter:
K58: C -0.099 ± 0.24 | G -0.008 ± 0.29 | Q 0.059 ± 0.43 | M -0.138 ± 0.25 | V -0.315 ± 0.29 | E 0.001 ± 0.22 | R -0.036 ± 0.14 | A -0.021 ± 0.27
R59: C 0.035 ± 0.29 | W -0.126 ± 0.1 | M -0.058 ± 0.1 | A -0.303 ± 0.22 | H 0.107 ± 0.14 | S 0.052 ± 0.1 | E 0.138 ± 0.12 | K 0.012 ± 0.14 | Q 0.024 ± 0.25 | F -0.182 ± 0.22 | P 0.2 ± 0.15 | T -0.011 ± 0.32 | G 0.011 ± 0.097 | Y -0.156 ± 0.26 | L 0.063 ± 0.11
V54: T -0.209 ± 0.3 | S -0.358 ± 0.16 | H -0.484 ± 0.43 | R -0.557 ± 0.19 | P -0.604 ± 0.32 | G -0.075 ± 0.091
E56: S -0.256 ± 0.11 | K 0.024 ± 0.28 | M -0.152 ± 0.21 | T -0.244 ± 0.17 | P 0.06 ± 0.19 | A -0.002 ± 0.12 | R -0.137 ± 0.089 | L -0.18 ± 0.1 | I -0.286 ± 0.44 | C -0.044 ± 0.4 | V -0.05 ± 0.27 | Q -0.217 ± 0.25
I57: R -0.007 ± 0.25 | V -0.03 ± 0.37 | G -0.157 ± 0.24 | M -0.205 ± 0.35 | P -0.326 ± 0.31 | C -0.25 ± 0.32
K55: I -0.177 ± 0.12 | C -0.027 ± 0.15 | H -0.301 ± 0.27 | Y -0.294 ± 0.23 | R 0.009 ± 0.072 | F -0.961 ± 0.42 | N -0.272 ± 0.17 | M -0.218 ± 0.14 | Q 0.032 ± 0.11 | W -0.771 ± 0.32 | P -0.507 ± 0.37 | E -0.489 ± 0.3 | D -0.755 ± 0.33 | S -0.07 ± 0.079 | L -0.303 ± 0.094 | G -0.216 ± 0.1

Variants of: B2
Assay: as above
Conditions: Homo sapiens

Abundance fitness: each site, then its substitutions
H15: R -0.985 ± 0.077 | I -0.906 ± 0.16 | M -0.1 ± 0.082 | Y -0.176 ± 0.09 | T -0.361 ± 0.075 | G -0.255 ± 0.052
G26: K -0.571 ± 0.055 | P -0.55 ± 0.076 | H -0.46 ± 0.043 | Q -0.483 ± 0.077
S20: P -0.257 ± 0.061 | A -0.056 ± 0.045 | E 0.034 ± 0.052 | V -0.369 ± 0.043 | F -0.545 ± 0.068
A7: W -0.98 ± 0.13 | I -0.263 ± 0.099 | G 0.06 ± 0.049 | N -0.432 ± 0.072
A24: V -0.476 ± 0.055 | G -0.331 ± 0.068 | E -0.333 ± 0.082 | D -0.661 ± 0.079 | L -0.532 ± 0.051 | C -0.473 ± 0.089
R1: S 0.145 ± 0.095 | G 0.171 ± 0.063 | N -0.353 ± 0.29 | K -0.289 ± 0.17
I11: D -0.175 ± 0.091 | C -0.485 ± 0.07 | F -0.424 ± 0.14 | K -0.419 ± 0.087 | Q -0.469 ± 0.095 | S -0.436 ± 0.057 | E -0.528 ± 0.075 | L -0.316 ± 0.066
S16: C -0.215 ± 0.08 | A -0.186 ± 0.063 | I -0.894 ± 0.091 | Q 0.069 ± 0.085 | T -0.109 ± 0.05 | Y -0.385 ± 0.066
N10: C -0.13 ± 0.055 | P -0.163 ± 0.069 | Q 0.106 ± 0.051 | F 0.106 ± 0.088 | Y -0.192 ± 0.12 | T 0.002 ± 0.048 | E 0.439 ± 0.074 | R 0.024 ± 0.047 | G -0.058 ± 0.046 | D 0.192 ± 0.085
A8: H -0.564 ± 0.076 | L -1.02 ± 0.077 | C -0.999 ± 0.096 | R -0.391 ± 0.054 | I -1.07 ± 0.17 | V -0.639 ± 0.055 | T -0.387 ± 0.06
T32: V -0.637 ± 0.053 | M -0.947 ± 0.12 | W -0.716 ± 0.071 | Y -1.12 ± 0.2 | E -0.447 ± 0.057 | R -0.698 ± 0.094 | G -0.482 ± 0.052
R28: N 0.285 ± 0.088 | K 0.033 ± 0.071 | E 0.06 ± 0.09 | W -0.255 ± 0.057 | I -0.936 ± 0.15 | A -0.119 ± 0.06
I30: W -0.229 ± 0.1 | Q -0.178 ± 0.072 | T 0.068 ± 0.083 | D -0.087 ± 0.066
S5: H -0.795 ± 0.14 | G -0.564 ± 0.049 | D -0.098 ± 0.096 | E 0.081 ± 0.044 | R -0.862 ± 0.057
F2: P -1.1 ± 0.14 | D -0.267 ± 0.088 | H -0.878 ± 0.16 | R -0.65 ± 0.041 | C -0.605 ± 0.075 | T -0.323 ± 0.079 | S -0.239 ± 0.046 | W -1.25 ± 0.11
K14: A 0.008 ± 0.064 | M -0.149 ± 0.094 | Y -0.3 ± 0.1 | P -0.055 ± 0.081
P27: Q -0.221 ± 0.056 | T -0.167 ± 0.069 | K -0.146 ± 0.063
A36: T -0.669 ± 0.15 | D -0.262 ± 0.088 | N -0.428 ± 0.18 | K -0.563 ± 0.17 | R -0.723 ± 0.089 | P -0.908 ± 0.31
L12: N -0.319 ± 0.086 | Q -0.199 ± 0.061 | D 0.018 ± 0.076 | P -0.073 ± 0.062 | G -0.332 ± 0.048
E13: N 0.1 ± 0.11 | H -0.3 ± 0.1 | I -0.224 ± 0.096 | D -0.079 ± 0.058 | C -0.441 ± 0.052 | L -0.225 ± 0.047
G46: E 0.122 ± 0.12 | C 0.022 ± 0.093 | S -0.05 ± 0.06 | T -0.037 ± 0.059 | L -0.268 ± 0.071 | R -0.105 ± 0.05 | A -0.323 ± 0.095
F31: A -0.451 ± 0.087 | M -0.38 ± 0.082 | E -0.087 ± 0.071 | C -0.236 ± 0.067 | Q -0.424 ± 0.12 | S -0.306 ± 0.068 | N -0.084 ± 0.11
K43: G -0.141 ± 0.054 | D -0.227 ± 0.14 | P -0.477 ± 0.13
L42: M -0.09 ± 0.1 | R -0.094 ± 0.044 | S -0.247 ± 0.081 | D 0.085 ± 0.051 | I -0.291 ± 0.17 | G -0.183 ± 0.057 | K 0.221 ± 0.12
D35: Y -0.865 ± 0.19 | A -0.637 ± 0.051 | Q -0.818 ± 0.1
K38: S 0.007 ± 0.085 | P -0.33 ± 0.071 | W -0.951 ± 0.12 | L -0.775 ± 0.058 | M -0.251 ± 0.088
G22: I -0.446 ± 0.058 | N -0.648 ± 0.078 | R -0.723 ± 0.07 | D -0.552 ± 0.097 | P -0.64 ± 0.071 | T -0.554 ± 0.065 | H -0.524 ± 0.11
R9: M -0.251 ± 0.074 | Y -0.495 ± 0.076 | E -0.21 ± 0.085 | S -0.272 ± 0.053 | H -0.252 ± 0.092
E34: C -0.437 ± 0.17 | H -0.095 ± 0.082 | F -0.388 ± 0.1
R3: N 0.31 ± 0.1 | Q -0.374 ± 0.084 | C -0.064 ± 0.069 | E -0.57 ± 0.069
T25: E -0.765 ± 0.11 | C -0.423 ± 0.095 | M -0.423 ± 0.072 | Y -0.86 ± 0.13 | D -0.582 ± 0.094 | A -0.566 ± 0.072 | H -0.58 ± 0.15
V40: H -1.01 ± 0.4 | G -0.545 ± 0.059 | A -0.338 ± 0.073 | I -0.411 ± 0.082 | K -0.099 ± 0.11 | T -0.706 ± 0.14
Q44: V -0.133 ± 0.044 | H -0.152 ± 0.095 | I 0.039 ± 0.093 | M -0.389 ± 0.12 | S -0.068 ± 0.082 | W -0.641 ± 0.14 | P -0.516 ± 0.093 | T -0.451 ± 0.13 | L -0.131 ± 0.053 | D -0.262 ± 0.12
P6: E 0.355 ± 0.064 | W -0.261 ± 0.062 | Q -0.08 ± 0.091 | M -0.23 ± 0.094 | K 0.07 ± 0.077 | R 0.038 ± 0.046
T45: H -0.189 ± 0.13 | K -0.379 ± 0.11 | I -0.428 ± 0.15 | C -0.217 ± 0.085 | R -0.023 ± 0.058 | S 0.167 ± 0.052 | M -0.211 ± 0.088
T23: M -0.231 ± 0.054 | F -0.36 ± 0.072 | I -0.074 ± 0.089 | C -0.234 ± 0.056 | G -0.326 ± 0.045 | W -0.424 ± 0.073 | K -0.062 ± 0.075
K47: Y 0.095 ± 0.15 | C -0.003 ± 0.25
L39: Y -0.874 ± 0.17 | D -0.121 ± 0.1 | G -0.222 ± 0.062 | A -0.319 ± 0.067
K33: N -0.462 ± 0.18 | L -0.379 ± 0.062 | V -0.291 ± 0.054 | D -0.279 ± 0.12 | C -0.417 ± 0.059 | T -0.04 ± 0.084 | E 0.079 ± 0.044 | S -0.305 ± 0.084
D18: V -0.625 ± 0.054 | N 0.028 ± 0.098 | C -0.331 ± 0.048 | Y -0.605 ± 0.14 | E -0.815 ± 0.13 | I -0.336 ± 0.1
G29: M -0.447 ± 0.1 | I -0.349 ± 0.11 | L -0.609 ± 0.049 | R -0.526 ± 0.052
Q21: E 0.041 ± 0.068 | D -0.194 ± 0.068 | K -0.339 ± 0.045 | F -0.493 ± 0.085 | G -0.101 ± 0.048 | W -0.223 ± 0.056 | R -0.44 ± 0.058
L37: R -0.377 ± 0.07 | I -0.369 ± 0.12 | H -0.544 ± 0.17 | A -0.55 ± 0.1 | Q -0.545 ± 0.14 | E 0.278 ± 0.09 | W -0.293 ± 0.054 | V -0.165 ± 0.068
Q41: G -0.227 ± 0.075 | Y -0.639 ± 0.17 | H -0.452 ± 0.18 | L -0.353 ± 0.058 | P -0.2 ± 0.11 | M -0.181 ± 0.066
L17: I -0.22 ± 0.15 | K -0.509 ± 0.076 | T -0.31 ± 0.092 | P -0.07 ± 0.081 | A -0.506 ± 0.056 | V -0.331 ± 0.053 | W -0.57 ± 0.055 | M -0.134 ± 0.098 | Y -0.691 ± 0.17 | Q -0.483 ± 0.12
L4: M -0.008 ± 0.062 | T -0.204 ± 0.059 | K -0.09 ± 0.082
A19: M -0.074 ± 0.049 | L -0.412 ± 0.053 | D -0.355 ± 0.12 | T -0.379 ± 0.048 | F -0.59 ± 0.14

From the Human Domainome abundance scans (Beltran et al. 2025)
